Measurements from paper PMC10864350, “Phosphorylation-dependent deubiquitinase OTUD3 regulates YY1 stability and promotes colorectal cancer progression” (Cell Death & Disease, 2024).

Key:
YY1 = YY1 (UniProt P25490); assay: co-IP; details: reference: HA-OTUD3 wild type; sites S326
[1] = target: T1, Myc-tagged PLK1 (wild-type) (UniProt P53350 1-603); assay: pull-down; GST or GST-OTUD3 (E. coli) incubated overnight at 4 °C with purified Flag-YY1 or Myc-PLK1 from HEK-293T; Glutathione-Sepharose 4B beads; immunoblot with anti-Flag or anti-Myc; details: both partners purified
T1 construct: Polo-like kinase 1 (PLK1), wild type, cloned into pCDNA3.1-CMV-Myc-C; The vector name pCDNA3.1-CMV-Myc-C may mean a C-terminal tag; also called Myc-PLK1; source: SW480, transfected, in lysate
T1 sequence (P53350 whole entry): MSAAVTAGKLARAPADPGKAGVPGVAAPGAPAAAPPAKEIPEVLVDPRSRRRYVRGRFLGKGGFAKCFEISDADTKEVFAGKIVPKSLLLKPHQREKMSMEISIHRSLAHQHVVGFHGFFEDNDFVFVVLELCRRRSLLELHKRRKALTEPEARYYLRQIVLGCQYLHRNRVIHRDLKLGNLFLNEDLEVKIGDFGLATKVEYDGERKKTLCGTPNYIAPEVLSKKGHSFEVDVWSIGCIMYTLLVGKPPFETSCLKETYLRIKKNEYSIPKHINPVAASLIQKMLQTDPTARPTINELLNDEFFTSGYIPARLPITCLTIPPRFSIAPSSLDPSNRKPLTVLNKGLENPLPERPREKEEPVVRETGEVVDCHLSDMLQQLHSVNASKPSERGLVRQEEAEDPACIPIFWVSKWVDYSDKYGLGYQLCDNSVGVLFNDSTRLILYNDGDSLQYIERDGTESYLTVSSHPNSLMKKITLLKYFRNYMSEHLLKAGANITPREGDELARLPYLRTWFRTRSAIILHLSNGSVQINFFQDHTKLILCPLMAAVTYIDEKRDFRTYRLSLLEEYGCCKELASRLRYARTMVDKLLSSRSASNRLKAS

[2] = target: T2, Flag-tagged YY1 (Yin Yang 1), full length, wild type (UniProt P25490 1-414); assay: as above; details: both partners purified
T2 construct: Yin Yang 1 (YY1), zinc finger transcription factor, full-length wild type cloned into pCDNA3.1-CMV-Flag-C; The vector name pCDNA3.1-CMV-Flag-C may mean a C-terminal tag; also called Flag-YY1; YY1-WT; source: SW480, transfected, in lysate
T2 sequence (P25490 whole entry): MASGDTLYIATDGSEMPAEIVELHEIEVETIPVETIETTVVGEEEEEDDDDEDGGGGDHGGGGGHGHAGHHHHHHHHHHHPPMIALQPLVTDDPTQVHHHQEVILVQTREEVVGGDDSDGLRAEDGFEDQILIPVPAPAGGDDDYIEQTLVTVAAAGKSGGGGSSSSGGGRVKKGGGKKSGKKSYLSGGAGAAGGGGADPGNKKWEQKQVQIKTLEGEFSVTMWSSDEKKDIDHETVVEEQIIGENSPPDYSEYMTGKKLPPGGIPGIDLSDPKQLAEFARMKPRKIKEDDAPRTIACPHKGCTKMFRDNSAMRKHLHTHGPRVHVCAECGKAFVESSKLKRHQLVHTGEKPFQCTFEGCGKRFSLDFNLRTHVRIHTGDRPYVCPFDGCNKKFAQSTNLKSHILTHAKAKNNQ

## OTUD3 (from UniProt Q5T2D3) HA-OTUD3 S326A
YY1
  binding against the reference: weaker

B1: GST-OTUD3 recombinant protein (enzyme, human, UniProt Q5T2D3 1-398, looked up)
chain: MSRKQAAKSRPGSGSRKAEAERKRDERAARRALAKERRNRPESGGGGGCEEEFVSFANQLQALGLKLREVPGDGNCLFRALGDQLEGHSRNHLKHRQETVDYMIKQREDFEPFVEDDIPFEKHVASLAKPGTFAGNDAIVAFARNHQLNVVIHQLNAPLWQIRGTEKSSVRELHIAYRYGEHYDSVRRINDNSEAPAHLQTDFQMLHQDESNKREKIKTKGMDSEDDLRDEVEDAVQKVCNATGCSDFNLIVQNLEAENYNIESAIIAVLRMNQGKRNNAEENLEPSGRVLKQCGPLWEEGGSGARIFGNQGLNEGRTENNKAQASPSEENKANKNQLAKVTNKQRREQQWMEKKKRQEERHRHKALESRGSHRDNNRSEAEANTQVTLVKTFAALNI
notes: OTUD3 cloned into the pGEX-6P-1 vector; also called GST-tagged OTUD3; GST-labeled OTUD3; source: Escherichia coli BL21 (DE3), purified (Glutathione Sepharose 4B beads)
[1]
  binding result: binds
[2]
  binding result: binds
